In patent US20110038881A1, “PROGNOSTIC ASSAY FOR DETERMINING T CELL RESPONSE TO HLA ANTIGENS AND USE THEREOF IN FIELD OF TISSUE TRANSPLANTATION” (priority 2007, published 2011):

Columns and labels:
Test in all cases: competition binding
Settings in all cases: modification not given
[1] = target: HLA-DRB1*0101 (human)
[2] = target: HLA-DRB1*0301 (human)
[3] = target: HLA-DRB1*0401 (human)
[4] = target: HLA-DRB1*0701 (human)
[5] = target: HLA-DRB1*1101 (human)
[6] = target: HLA-DRB1*1301 (human)
[7] = target: HLA-DRB1*1501 (human)
[8] = target: HLA-DRB3*0101 (human)
[9] = target: HLA-DRB4*0101 (human)
[10] = target: HLA-DRB5*0101 (human)

| Binder | IC50 [1] | IC50 [2] | IC50 [3] | IC50 [4] | IC50 [5] | IC50 [6] | IC50 [7] | IC50 [8] | IC50 [9] | IC50 [10] |
| --- | --- | --- | --- | --- | --- | --- | --- | --- | --- | --- |
| HQYAYDGKDYIALKE [p23] | 0.406 µM | 52 µM | 17.7 µM | 37.8 µM | 0.684 µM | > 100 µM | > 100 µM | 2.29 µM | > 100 µM | 1.5 µM |
| RGYYNQSEAGSHTVQ [p16*] | – | > 100 µM | 0.494 µM | 0.13 µM | 3.18 µM | > 100 µM | > 100 µM | > 100 µM | > 100 µM | 0.175 µM |
| CDVGSDWRFLRGYHQ [p19] | 0.009 µM | 1.5 µM | 0.543 µM | 0.341 µM | 0.029 µM | 100 µM | 0.598 µM | > 100 µM | 51.4 µM | 0.033 µM |
| HRVDLGTLRGYYNQS [p13*] | 0.089 µM | > 100 µM | 4.04 µM | 36.7 µM | 8.06 µM | > 100 µM | 0.088 µM | > 100 µM | 67.1 µM | 12.4 µM |
| IAVGYVDDTQFVRFD [p5] | 2.77 µM | 0.316 µM | 31 µM | 3.1 µM | 9.22 µM | > 100 µM | 2.97 µM | – | > 100 µM | 0.798 µM |
| RGYHQYAYDGKDYIA [p22] | 9.49 µM | 8.48 µM | 81.5 µM | 33.4 µM | 1.75 µM | > 100 µM | > 100 µM | 1.28 µM | > 100 µM | 40 µM |
| RKVKAHSQTHRVDLG [p12] | 21.6 µM | > 100 µM | 100 µM | 0.486 µM | > 100 µM | 0.385 µM | > 100 µM | > 100 µM | 2.97 µM | 7.98 µM |
| MRYFFTSVSRPGRGE [p2*] | 0.002 µM | 2.84 µM | – | 0.045 µM | 0.003 µM | 0.399 µM | 1.17 µM | > 100 µM | > 100 µM | 0.004 µM |
| KPLTLRWEPSSQPTI [p50*] | 0.458 µM | > 100 µM | 0.134 µM | 0.097 µM | 11.4 µM | > 100 µM | 5.61 µM | 3.55 µM | 4.58 µM | 45.8 µM |
| VGYVDDTQFVRFDSD [p6] | 27.7 µM | 0.6 µM | 97.5 µM | 3.16 µM | 2.8 µM | > 100 µM | 1.78 µM | 0.245 µM | 9 µM | 9.19 µM |
| PRFIAVGYVDDTQFV [p4] | 0.748 µM | 12 µM | > 100 µM | 0.85 µM | 5.48 µM | > 100 µM | – | 0.196 µM | 45.7 µM | 0.755 µM |
